The record followed here is article PMC9160355.

The data set concerns the target Rho WT (Escherichia coli) (UniProt P0AG30). The data set can be described thus: EMSA. As to conditions: 25 mM Tris-HCl pH 8.0, 5 mM MgCl2, 50 mM KCl, 1 mM DTT, 0.1 mg/ml BSA; 5 nM RNA, 0-50 nM Rho; 37 °C 5 min; 4% native gel at 4 °C.

For orientation: Kd means the equilibrium constant for the complex coming apart.

Sequence of Rho WT (Escherichia coli) (P0AG30 whole entry): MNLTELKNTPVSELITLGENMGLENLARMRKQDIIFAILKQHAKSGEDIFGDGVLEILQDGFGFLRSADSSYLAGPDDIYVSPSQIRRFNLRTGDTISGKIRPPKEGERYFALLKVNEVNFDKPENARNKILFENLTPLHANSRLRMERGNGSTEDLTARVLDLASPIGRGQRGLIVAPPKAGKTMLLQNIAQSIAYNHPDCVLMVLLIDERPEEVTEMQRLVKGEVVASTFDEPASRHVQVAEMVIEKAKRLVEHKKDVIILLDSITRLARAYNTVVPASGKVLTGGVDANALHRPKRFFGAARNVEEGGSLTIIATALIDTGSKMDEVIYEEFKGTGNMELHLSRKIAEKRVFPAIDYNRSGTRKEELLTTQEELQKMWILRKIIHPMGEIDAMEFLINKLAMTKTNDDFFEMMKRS

“GGGAGAGCUGCUUGUUUAAAGCUGACUGGUUUUAUUGGAAUAGUGAAAUAGUCAACAUCAUACAUUAUAACAUCAGUUACUUUUCCACAAAGAAACUAAUCCAUUUAAGCGAAUAUCUCUGCACCUAAUAGUUAUAAAUGCCAUUUAACAGCCAGUUAUAGUACCACUUGAAACUAUAUUACCAACAAUAAUUAAUAGCUUUCGUAACAAUUUCCUUAUCUUUAAUUUGUAUUUUGCUAAGAUUUAUCUUAUGCUCACAAGUCGUAUUUCCAGAGGGGGAUAG [gfcA terminator RNA]” had a Kd of 19.9 nM. The same measure for dmsA terminator RNA: 16.1 nM. For the substance gfcA terminator RNA, the Kd came out at 19.9 nM. The same measure for gntX terminator RNA: 23.2 nM; for setC terminator RNA: 11.5 nM. In turn, sodA terminator RNA displayed a Kd of 9.99 nM. For trac (rac) terminator RNA, the Kd is 3.08 nM. Take yagM terminator RNA: the equilibrium dissociation constant (Kd) stood at 11.8 nM. The same measure for ycfJ terminator RNA: 18.5 nM; for ydeT terminator RNA: 16.3 nM. ydhQ terminator RNA registered a Kd of 16.4 nM.
